Test results as given in the supplement of paper PMC9170038.

System: K4 kissing-loop RNA reporter
Experiment: apparent KD of K4 kissing-loop reporter; higher = weaker reporter binding
Details: Eterna round: R107
Procedure: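 RNA-MaP round R107: designed RNA switches with theophylline, tryptophan, arginine or FMN aptamers are transcribed on-chip within common flanks. They are titrated with a labelled K4 kissing-loop RNA reporter in RNA-MaP buffer (100 mM Tris pH 7.5, 80 mM KCl, 4 mM MgCl2), without ligand or with the indicated ligand. Median apparent KD per design.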

[1] = input ligand: theophylline 20 uM
[2] = input ligand: tryptophan 2.4 mM
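Further: bound reporter read as fluorescence of individual clusters on recovered sequencing chips by microscopy, with normalized cluster intensities fitted with a binding model.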

| Sequence | apparent KD of K4 kissing-loop reporter (input ligand: FMN 200 uM) | apparent KD of K4 kissing-loop reporter (input ligand: arginine 13.2 mM) | apparent KD of K4 kissing-loop reporter (input ligand: none) | apparent KD of K4 kissing-loop reporter [1] | apparent KD of K4 kissing-loop reporter [2] |
| --- | --- | --- | --- | --- | --- |
| UGUGUUGUUUUGAUGUUUGGUGUUGCAUGGCAGGAUAUCGUAGAGGCGAGAAGGGCUUUUGAGCGGUAUGAGUGAUGUUUGUAGG [p,,mmullin] | 0.526 µM | 0.309 µM | 0.441 µM | 0.354 µM | 0.379 µM |
| AACUGGGUUCGUGAUACCAGCUCACACAUGAGUGAUGUUCAUGUAGUGGGUAAAAUGUGGAGCCCUUGGCAGCACUGUGACCACG [XTheo-B1] | 0.0915 µM | 0.0764 µM | 0.0812 µM | 0.0675 µM | 0.0813 µM |
| AAAUCGUUCAGAAGGAGCGUGGAUUAUUCUUAUAUAUUUAUUACGAGUGAUGUUCGUAAUUCACAGGUAGGUCGCUGAUCGAUAA [JR_ExcArginiB_Sub004] | 0.106 µM | 0.126 µM | 0.112 µM | 0.13 µM | 0.108 µM |
| UGAAAUCGAAUUCCGCGUGCAACGCCAGUAAAGGAUAUCAUCACACUGAGAAGGUUACGAAGCGGAGUGAUGUUCCGCUCUAUCC [theeternabot_sameState_KL_FMN_A_50] | 0.105 µM | 0.112 µM | 0.12 µM | 0.114 µM | 0.0985 µM |
| UUUUUAAUCGCAGAUACCAGUCCAGAAUAAAUACUAUAGUGAUGUUAUAAAUAAGGAAAGGACCCUUGGCAGCUGUACUAUAUUU [AstrosSsTheB#7] | 0.433 µM | 0.465 µM | 0.668 µM | 0.372 µM | 0.524 µM |
| CAUAGGAAACUAUGUAUCUCUCUGACUGAAGGAGCGCGUGAAAACGCAGGUAGGUCGCAGAAUUUAACAGAGAGUGAUGUUCUCU [Ex Arginine A K4 9] | 0.31 µM | 0.259 µM | 0.319 µM | 0.277 µM | 0.258 µM |
| AGUCCACUCUAAAGAGUGGACCUAAGGGAUACCAGUGAUGUUGGUCACCCUUGGCAGCCCAGGGCCCGGCGAAUAGCCGGGCCCA [#10 K4 Theophylline A Exclusion] | 0.125 µM | 0.0998 µM | 0.115 µM | 0.121 µM | 0.125 µM |
| AGACUACCUACACUGUCAAUAGACAGUGACUAGGAUAUGCUGAUAAGCAGAAGGAGUGAUGUUCCAAAUAAAAGGUGGUAGUCAU [FmnAX 18 #SwitchBubble #StaticStem #K4Early] | 0.378 µM | 0.16 µM | 0.142 µM | 0.152 µM | 0.111 µM |
| GCAUUGAGUGAUGUUUAAGCUUAGUCAUCACGAGGACCGGUACGGCCGCCACUCGUGCUUGGAGCGACCGAUACCCUAGAGACCC [theeternabot_sameState_KL_Trp_A_27] | 0.16 µM | 0.0625 µM | 0.0617 µM | 0.247 µM | 0.193 µM |
| GUACCUUGGAAACAAGGACAGAUAACCGAAGGAGCGCGUGAAAACGCAGGUAGGUCGCGGAAGCAGUGAUGUUGCAAAAGAGAGC [Same State Arginine A GF 17] | 0.168 µM | 0.188 µM | 0.125 µM | 0.228 µM | 0.111 µM |
| GGUUGCAGCCCUGCAUCGUGGGUUUAGAGUAAGGAUAUUCGCCAAGGAAGAAGGUACUCUGCAUUGAGUGAUGUUCAAUAAGAUG [theeternabot_sameState_KL_FMN_A_30] | 0.109 µM | 0.176 µM | 0.146 µM | 0.166 µM | 0.104 µM |
| CAUUCUAAAUGCAGUGAUGUUGCAACUGAUACCAGUAUCGAAAGAUACCCUUGGCAGCGGAAAACCGCUACGUUUUUUUAGAAUG [Ex Theophylline A K4 23] | 0.264 µM | 0.369 µM | 0.352 µM | 0.438 µM | 0.243 µM |
| CCUAUCUCAUACGAUACCAGUGAAUAACCAGUGAUGUUGGAAUAACCAAGGAAUAUUUUUCACCCUUGGCAGCGUAUGGGAUAGG [Ex Theophylline B K4 27] | 0.492 µM | 0.285 µM | 0.378 µM | 0.385 µM | 0.312 µM |
| AUCGGGAAUACGGCCGCCACUAUAGAGGCGACUACAUACCACCACAGUGAUGUUGUGCUGACCAGUAGGACCGGGUAAAAUCGAU [theeternabot_exclusion_KL_Trp_B_49] | 0.817 µM | 0.594 µM | 0.871 µM | 0.726 µM | 0.672 µM |
| ACACUAUCGUCAUAGACGGUAGUGACAUCUCAGGAUAUAAGUGAUGUUAGAAGGGAGAAAAUCUUAGGUAUCGAAUAGAUACCAA [FmnA 8 #K4BetweenAptamer #OpenEnded] | 0.415 µM | 1.1 µM | 1.27 µM | 0.821 µM | 1.38 µM |
| GCCUGGGCACGAAGGAGCGCCGUGACAGGUUACUGCCUUGGGCAGUGAUGUUGCUCAAUCUGGCAGGUAGGUCGCGUGCCCAGGC | 0.162 µM | 0.162 µM | 0.161 µM | 0.159 µM | 0.168 µM |
| CGUGAGUGAUGUUCACGAUGCUUCAAUCUAGAGGAUAUUCACGAUCGAAGAAGGCUGGACAAGUGCUGUCUCAUGACAGAUAAGG [FMN A SS t4] | 0.161 µM | 0.253 µM | 0.287 µM | 0.298 µM | 0.237 µM |
| AAAAUAACCCAGUGAUGUUGGUAACCAGAUACCAGCGACGAAAGUCGCCCUUGGCAGCUGUGGACGUACAAAAUAAGUACGUCCU | 0.686 µM | 0.765 µM | 0.859 µM | 0.583 µM | 0.649 µM |
| AAUUUUAAUAAUAAAUAAUAAAUAAAUGAUACCAGUAUUUUUUUUUACCCUUGGCAGCAUAUAUAAGGGCAGUGAUGUUGCCAAA [Same State - Theophylline A] | 0.145 µM | 0.0852 µM | 0.119 µM | 0.111 µM | 0.131 µM |
| AAACAUUGGUCUGAUACCAGCUUGAUCGGAAACGAUCUGCUGGAGUGAUGUUCCAAGUAAAGCCCUUGGCAGCAGACCGAUGAAA [MAT - Same State Theophlline B - Mod of Eli - D16] | 0.121 µM | 0.0696 µM | 0.149 µM | 0.192 µM | 0.115 µM |
| CCUUCUCUUGAUAGUGAUGUUAUCAAGGGCAAGGAUAUCAUUUUAAUGAGAAGGUGUCCUUGAUAACAUGGAGGUCUGAAACAGA [Omei KL FMN A Exc C v6] | 0.151 µM | 0.0866 µM | 0.114 µM | 0.169 µM | 0.0955 µM |
